“And” between values parts separate entries of the source, which are not always exact repeats. Equal values may be shown once.
Key:
[1] = Fed-batch production of cis-α-irone in 5 L bioreactor; assay type: cell-based, Escherichia coli; conditions: 10% DO, another 24 h after feeding stopped
Description: FIGS. 5a and 5b show the time-course profiles of OD600, cis-α-irone, β-irone and psi-ionone titers when DO was controlled at 2% and 10% respectively.
Lastly, a single-phase fed-batch process was tested in a 5 L bioreactor. Even though 2O31 ΔmetJ strain produced a higher titer of cis-α-irone, its growth seemed to be impeded during fermentation. Thus, 2O31-pMT10 strain was tested. The optimized bioprocess for α-ionone was applied^8, in which the glucose feeding rate was set at 10 g/h and the glucose concentration was kept between 0-5 g/L. Two different dissolved oxygen (DO) levels were tested: 2% and 10%. Under these DO settings, evaporation was kept at minimum which is <0.05%. […] Subsequently, cis-α-irone production became faster at 2% DO than 10% DO. At 113 h, when glucose feeding was stopped, approximately 109 mg/L and 106 mg/L cis-α-irone were produced at 2% and 10% DO respectively. By continuing incubating the cultures for another 24 h, a final titer of approximately 153 mg/L and 172 mg/L cis-α-irone were produced at 2% and 10% DO respectively. Simultaneously, a decrease in psi-ionone concentration was observed during the last 24 h, indicating psi-ionone was converted to cis-α-irone. Other DO levels may also be used, for example 15%. […]

[2] = In vitro biotransformation of psi-ionone to cis-α-irone by cell lysate containing overexpressed pMT10; assay type: biochemical; conditions: 28° C., 3 days
Description: All the purified enzyme reactions were done in triplicates.
With the positive effect of mtaD, in vitro biotransformation by using cell lysate containing overexpressed pMT10 and mtaD was explored. To challenge the enzyme, 10 mg/L (0.05 mM), 100 mg/L (0.5 mM) or 1000 mg/L (5 mM) of psi-ionone was supplemented into the reaction, and 6.4 mg/L (˜0.03 mM), 54 mg/L (˜0.26 mM) and 182 mg/L (˜0.88 mM) of cis-α-irone were produced, respectively after incubating the reaction at 28° C. for 3 days (FIG. 3d).

B1: pMT10: pMT1 with Y200F S182E L273V L180A A202L Y65F C156A T91P (protein)
chain: MPQEARTPQQQVTADEVGDWYDKFGEVYHLTLGESVHCGLWFPPDAPVPQDMELVTMSSQAQDRFTDYLIETLDPKAGQHLLDIGCGTGRPALKAARQRGIAVTGVAVSKEQIAAANRLAAGHGLTERLTFEVADAMRLPYEDESFDCAWAIESLAHMDRAKALGEAWRVLKPGGDLLVAEEVVTEELTEPETALFETLFALNVPPRLGEFFDIVSGAGFHTLSLKDLSANLAMTMNVFALGVYSRRAEFTERFGAEFVDGLLAGLGSAQETVIRKTRFFMATLRKPAV
modifications: Modified from pMT1
notes: pMT1 with Y200F S182E L273V L180A A202L Y65F C156A T91P
With B1 the “final titer of cis-α-irone” value [1] was about 172 mg/L, the cis-α-irone produced ([2]; 10 mg/L (0.05 mM) psi-ionone) was 6.4 mg/L and ~0.03 mM and the cis-α-irone produced ([2]; 100 mg/L (0.5 mM) psi-ionone) was 54 mg/L and ~0.26 mM.
